Assay results taken from article PMC11969024 (2025).

B1: peptide HD2 (from tick evasin EVA4) / CCL19 (biotinylated, synthetic) (parent complex)
chain 1: EEDDYTAYAPLTCYFT
chain 2: GTNDAEDCCLSVTQKPIPGYIVRNFHYLLIKDGCRVPAVVFTTLRGRQLCAPPDQPWVERIIQRLQRTSAKMKRRSS

Variants of: B1

Row | Variant | enrichment
1 | chain 1 EEDDYTAYAMLTCYFT [chain 1 P10M] | -7.47 log2 (difference from the parental peptide)
2 | chain 1 EEDDYTAYATLTCYFT [chain 1 P10T] | -5.84 log2 (difference from the parental peptide)
3 | chain 1 EEDDYTAYAVLTCYFT [chain 1 P10V] | -9.35 log2 (difference from the parental peptide)
4 | chain 1 EEDDYTAYAFLTCYFT [chain 1 P10F] | -4.06 log2 (difference from the parental peptide)
5 | chain 1 EEDDYTAYALLTCYFT [chain 1 P10L] | -6.31 log2 (difference from the parental peptide)
6 | chain 1 EEDDYTAYAYLTCYFT [chain 1 P10Y] | -6.54 log2 (difference from the parental peptide)
7 | chain 1 EEDDYTAYAPLTCYLT [chain 1 F15L] | -2.93 log2 (difference from the parental peptide)
8 | chain 1 EEDDYTAYAPLTCYMT [chain 1 F15M] | -6.46 log2 (difference from the parental peptide)
9 | chain 1 EEDDYTAYAPLTCYVT [chain 1 F15V] | -3.63 log2 (difference from the parental peptide)
10 | chain 1 EEDDYTAYAPLTCYHT [chain 1 F15H] | -3.96 log2 (difference from the parental peptide)
11 | chain 1 EEDDYTAYAPLTCYYT [chain 1 F15Y] | -1.04 log2 (difference from the parental peptide)
12 | chain 1 EEDDYTAYAPLTCYET [chain 1 F15E] | -4.2 log2 (difference from the parental peptide)
13 | chain 1 EEDDYTAYAPLTCYWT [chain 1 F15W] | -0.785 log2 (difference from the parental peptide)
14 | chain 1 EEDDYTAYAPLTCYQT [chain 1 F15Q] | -4.06 log2 (difference from the parental peptide)
15 | chain 1 EEDDYTAYAPLTCYPT [chain 1 F15P] | -6.33 log2 (difference from the parental peptide)
16 | chain 1 EEDDYTAYAPLTCYCT [chain 1 F15C] | -6.81 log2 (difference from the parental peptide)
17 | chain 1 EEDDYTAYAPLTCYTT [chain 1 F15T] | -3.97 log2 (difference from the parental peptide)
18 | chain 1 EEYDYTAYAPLTCYFT [chain 1 D3Y] | -0.734 log2 (difference from the parental peptide)
19 | chain 1 EELDYTAYAPLTCYFT [chain 1 D3L] | -2.95 log2 (difference from the parental peptide)
20 | chain 1 EENDYTAYAPLTCYFT [chain 1 D3N] | -6.84 log2 (difference from the parental peptide)
21 | chain 1 EEWDYTAYAPLTCYFT [chain 1 D3W] | 0.0843 log2 (difference from the parental peptide)
22 | chain 1 EEFDYTAYAPLTCYFT [chain 1 D3F] | -3.58 log2 (difference from the parental peptide)
23 | chain 1 EMDDYTAYAPLTCYFT [chain 1 E2M] | 0.392 log2 (difference from the parental peptide)

Row | Variant | enrichment
24 | chain 1 ELDDYTAYAPLTCYFT [chain 1 E2L] | 0.769 log2 (difference from the parental peptide)
25 | chain 1 ESDDYTAYAPLTCYFT [chain 1 E2S] | -0.165 log2 (difference from the parental peptide)
26 | chain 1 ENDDYTAYAPLTCYFT [chain 1 E2N] | -1.08 log2 (difference from the parental peptide)
27 | chain 1 EDDDYTAYAPLTCYFT [chain 1 E2D] | 2.11 log2 (difference from the parental peptide)
28 | chain 1 ERDDYTAYAPLTCYFT [chain 1 E2R] | -2.64 log2 (difference from the parental peptide)
29 | chain 1 EEDDYTAYAPLTCGFT [chain 1 Y14G] | -9.47 log2 (difference from the parental peptide)
30 | chain 1 EEDDYTAYAPLTCPFT [chain 1 Y14P] | -7.82 log2 (difference from the parental peptide)
31 | chain 1 EEDDYTAYAPLTCFFT [chain 1 Y14F] | -2.54 log2 (difference from the parental peptide)
32 | chain 1 EEDDYTAYAPLTCVFT [chain 1 Y14V] | -7.09 log2 (difference from the parental peptide)
33 | chain 1 EEDDCTAYAPLTCYFT [chain 1 Y5C] | -4.33 log2 (difference from the parental peptide)
34 | chain 1 EEDDSTAYAPLTCYFT [chain 1 Y5S] | -6.07 log2 (difference from the parental peptide)
35 | chain 1 EEDDFTAYAPLTCYFT [chain 1 Y5F] | -2.5 log2 (difference from the parental peptide)
36 | chain 1 EEDDMTAYAPLTCYFT [chain 1 Y5M] | -5.03 log2 (difference from the parental peptide)
37 | chain 1 EEDDITAYAPLTCYFT [chain 1 Y5I] | -6.6 log2 (difference from the parental peptide)
38 | chain 1 EEDDNTAYAPLTCYFT [chain 1 Y5N] | -6.68 log2 (difference from the parental peptide)
39 | chain 1 EEDDWTAYAPLTCYFT [chain 1 Y5W] | 3.19 log2 (difference from the parental peptide)
40 | chain 1 EEDDYTAYAPTTCYFT [chain 1 L11T] | -3.41 log2 (difference from the parental peptide)
41 | chain 1 EEDDYTAYAPCTCYFT [chain 1 L11C] | -4.39 log2 (difference from the parental peptide)
42 | chain 1 EEDDYTAYAPKTCYFT [chain 1 L11K] | -3.64 log2 (difference from the parental peptide)
43 | chain 1 EEDDYTAYAPMTCYFT [chain 1 L11M] | -1.53 log2 (difference from the parental peptide)
44 | chain 1 EEDDYTAYAPSTCYFT [chain 1 L11S] | -5.08 log2 (difference from the parental peptide)
45 | chain 1 EEDDYTAYAPQTCYFT [chain 1 L11Q] | -1.91 log2 (difference from the parental peptide)
46 | chain 1 EEDDYTAYAPPTCYFT [chain 1 L11P] | -5.49 log2 (difference from the parental peptide)

Row | Variant | enrichment
47 | chain 1 EEDDYTASAPLTCYFT [chain 1 Y8S] | -6.72 log2 (difference from the parental peptide)
48 | chain 1 EEDDYTAHAPLTCYFT [chain 1 Y8H] | -6.54 log2 (difference from the parental peptide)
49 | chain 1 EEDDYTAMAPLTCYFT [chain 1 Y8M] | -4.14 log2 (difference from the parental peptide)
50 | chain 1 EEDDYDAYAPLTCYFT [chain 1 T6D] | 2.57 log2 (difference from the parental peptide)
51 | chain 1 EEDDYLAYAPLTCYFT [chain 1 T6L] | 1.3 log2 (difference from the parental peptide)
52 | chain 1 EEDDYYAYAPLTCYFT [chain 1 T6Y] | 4.88 log2 (difference from the parental peptide)
53 | chain 1 EEDDYKAYAPLTCYFT [chain 1 T6K] | -1.49 log2 (difference from the parental peptide)
54 | chain 1 EEDDYHAYAPLTCYFT [chain 1 T6H] | -2.26 log2 (difference from the parental peptide)
55 | chain 1 EEDDYWAYAPLTCYFT [chain 1 T6W] | 7.55 log2 (difference from the parental peptide)
56 | chain 1 EEDDYGAYAPLTCYFT [chain 1 T6G] | 1.65 log2 (difference from the parental peptide)
57 | chain 1 EEDDYTAYAPLECYFT [chain 1 T12E] | -6.93 log2 (difference from the parental peptide)
58 | chain 1 EEDDYTAYAPLACYFT [chain 1 T12A] | -4.86 log2 (difference from the parental peptide)
59 | chain 1 EEDDYTAYAPLLCYFT [chain 1 T12L] | 2.69 log2 (difference from the parental peptide)
60 | chain 1 EEDDYTAYAPLPCYFT [chain 1 T12P] | -4.32 log2 (difference from the parental peptide)
61 | chain 1 EEDDYTAYAPLICYFT [chain 1 T12I] | 5.78 log2 (difference from the parental peptide)
62 | chain 1 EEDDYTAYAPLCCYFT [chain 1 T12C] | -7.61 log2 (difference from the parental peptide)
63 | chain 1 EEDDYTAYAPLMCYFT [chain 1 T12M] | 1.53 log2 (difference from the parental peptide)
64 | chain 1 EEDDYTAYAPLFCYFT [chain 1 T12F] | 3.41 log2 (difference from the parental peptide)
65 | chain 1 EEDDYTKYAPLTCYFT [chain 1 A7K] | -3.29 log2 (difference from the parental peptide)
66 | chain 1 EEDDYTVYAPLTCYFT [chain 1 A7V] | 0.465 log2 (difference from the parental peptide)
67 | chain 1 EEDDYTNYAPLTCYFT [chain 1 A7N] | -1.33 log2 (difference from the parental peptide)
68 | chain 1 EEDDYTEYAPLTCYFT [chain 1 A7E] | -0.397 log2 (difference from the parental peptide)
69 | chain 1 EEDDYTYYAPLTCYFT [chain 1 A7Y] | 4.06 log2 (difference from the parental peptide)

Row | Variant | enrichment
70 | chain 1 EEDDYTSYAPLTCYFT [chain 1 A7S] | -2.1 log2 (difference from the parental peptide)
71 | chain 1 EEDDYTMYAPLTCYFT [chain 1 A7M] | 2.5 log2 (difference from the parental peptide)
72 | chain 1 EEDDYTLYAPLTCYFT [chain 1 A7L] | 1.76 log2 (difference from the parental peptide)
73 | chain 1 EEDDYTHYAPLTCYFT [chain 1 A7H] | -0.764 log2 (difference from the parental peptide)
74 | chain 1 EEDSYTAYAPLTCYFT [chain 1 D4S] | -6.25 log2 (difference from the parental peptide)
75 | chain 1 EEDQYTAYAPLTCYFT [chain 1 D4Q] | -5.46 log2 (difference from the parental peptide)
76 | chain 1 EEDWYTAYAPLTCYFT [chain 1 D4W] | 0.498 log2 (difference from the parental peptide)
77 | chain 1 EEDVYTAYAPLTCYFT [chain 1 D4V] | -4.18 log2 (difference from the parental peptide)
78 | chain 1 EEDIYTAYAPLTCYFT [chain 1 D4I] | -2.59 log2 (difference from the parental peptide)
79 | chain 1 EEDFYTAYAPLTCYFT [chain 1 D4F] | -1.53 log2 (difference from the parental peptide)
80 | chain 1 EEDMYTAYAPLTCYFT [chain 1 D4M] | -3.6 log2 (difference from the parental peptide)
81 | chain 1 EEDDYTAYAPLTDYFT [chain 1 C13D] | -7.13 log2 (difference from the parental peptide)
82 | chain 1 EEDDYTAYAPLTSYFT [chain 1 C13S] | -6.7 log2 (difference from the parental peptide)
83 | chain 1 EEDDYTAYAPLTPYFT [chain 1 C13P] | -6.25 log2 (difference from the parental peptide)
84 | chain 1 EEDDYTAYAPLTCYFC [chain 1 T16C] | -6.65 log2 (difference from the parental peptide)
85 | chain 1 EEDDYTAYAPLTCYFF [chain 1 T16F] | -0.403 log2 (difference from the parental peptide)
86 | chain 1 EEDDYTAYAPLTCYFR [chain 1 T16R] | -6.57 log2 (difference from the parental peptide)
87 | chain 1 EEDDYTAYAPLTCYFS [chain 1 T16S] | -1.7 log2 (difference from the parental peptide)
88 | chain 1 EEDDYTAYAPLTCYFK [chain 1 T16K] | -6.25 log2 (difference from the parental peptide)
89 | chain 1 EEDDYTAYAPLTCYFQ [chain 1 T16Q] | -5.8 log2 (difference from the parental peptide)
90 | chain 1 EEDDYTAYAPLTCYFD [chain 1 T16D] | -1.5 log2 (difference from the parental peptide)
91 | chain 1 EEDDYTAYAPLTCYFY [chain 1 T16Y] | -0.692 log2 (difference from the parental peptide)
92 | chain 1 EEDDYTAYAPLTCYFE [chain 1 T16E] | -1.61 log2 (difference from the parental peptide)

Row | Variant | enrichment
93 | chain 1 EEDDYTAYAPLTCYFL [chain 1 T16L] | 0.688 log2 (difference from the parental peptide)
94 | chain 1 EEDDYTAYAPLTCYFW [chain 1 T16W] | 0.831 log2 (difference from the parental peptide)
95 | chain 1 EEDDYTAYYPLTCYFT [chain 1 A9Y] | 0.673 log2 (difference from the parental peptide)
96 | chain 1 EEDDYTAYFPLTCYFT [chain 1 A9F] | -2.77 log2 (difference from the parental peptide)
97 | chain 1 EEDDYTAYRPLTCYFT [chain 1 A9R] | -5.91 log2 (difference from the parental peptide)
98 | chain 1 EEDDYTAYLPLTCYFT [chain 1 A9L] | -1.81 log2 (difference from the parental peptide)
99 | chain 1 EEDDYTAYMPLTCYFT [chain 1 A9M] | -0.965 log2 (difference from the parental peptide)
100 | chain 1 EEDDYTAYCPLTCYFT [chain 1 A9C] | -8.06 log2 (difference from the parental peptide)
101 | chain 1 EEDDYTAYTPLTCYFT [chain 1 A9T] | -6.55 log2 (difference from the parental peptide)
102 | chain 1 LEDDYTAYAPLTCYFT [chain 1 E1L] | -2.92 log2 (difference from the parental peptide)
103 | chain 1 VEDDYTAYAPLTCYFT [chain 1 E1V] | -1.37 log2 (difference from the parental peptide)
104 | chain 1 IEDDYTAYAPLTCYFT [chain 1 E1I] | -1.84 log2 (difference from the parental peptide)
105 | chain 1 TEDDYTAYAPLTCYFT [chain 1 E1T] | -5.43 log2 (difference from the parental peptide)
106 | chain 1 HEDDYTAYAPLTCYFT [chain 1 E1H] | -5.95 log2 (difference from the parental peptide)
107 | chain 1 AEDDYTAYAPLTCYFT [chain 1 E1A] | -5.3 log2 (difference from the parental peptide)
108 | chain 1 PEDDYTAYAPLTCYFT [chain 1 E1P] | -6.51 log2 (difference from the parental peptide)
109 | chain 1 NEDDYTAYAPLTCYFT [chain 1 E1N] | -2.91 log2 (difference from the parental peptide)
110 | chain 1 SEDDYTAYAPLTCYFT [chain 1 E1S] | -6.42 log2 (difference from the parental peptide)
111 | chain 1 FEDDYTAYAPLTCYFT [chain 1 E1F] | -0.113 log2 (difference from the parental peptide)
112 | chain 1 GEDDYTAYAPLTCYFT [chain 1 E1G] | -6.21 log2 (difference from the parental peptide)
